{"source": "patent US20220348658A1", "about": "“ANTI-T CELL ANTIGEN-BINDING MOLECULE TO BE USED IN COMBINATION WITH CYTOKINE INHIBITOR” (Chugai Seiyaku Kabushiki Kaisha, priority 2019, published 2022)", "molecules": {"B1": {"name": "GC33/2C11: ERY974 surrogate antibody; GPC3-side chains SEQ ID NO: 443/444, CD3-side chains SEQ ID NO: 445/446 (protein)", "chain 1": "QVQLVQSGAEVKKPGASVKVSCKASGYTFTDYEMHWIRQPPGQGLEWIGAIDPKTGDTAYSQKFKGRVTLTADKSTSTAYMELSSLTSEDTAVYYCTRFYSYTYWGQGTLVTVSSAKTTPPSVYPLAPGSAAQTNSMVTLGCLVKGYFPEPVTVTWNSGSLSSGVHTFPAVLQSDLYTLSSSVTVPSSTWPSETVTCNVAHPASSTKVDKKIVPRDCGCKPCICTVKEVSKVFIFPPKPKDVLTITLTPKVTCVVVDISKDDPEVQFSWFVDDVEVHTAQTQPREEQFNSTFRSVSELPIMHQDWLNGKEFKCRVNSAAFPAPIEKTISKTKGRPKAPQVYTIPPPKEQMAKDKVSLTCMITDFFPEDITVEWQWNGQPAENYKNTQPIMDTDGSYFVYSELNVQKSNWEAGNTFTCSVLHEGLHNHHTEKSLSHSPGK", "chain 2": "DIVMTQSPLSLPVTPGEPASISCRSSQSLVHSNRNTYLHWYQQKPGQAPRLLIYKVSNRFSGVPDRFSGSGSGTDFTLKISRVEAEDVGVYYCSQNTHVPPTFGQGTKLEIKRADAAPTVSIFPPSSEQLTSGGASVVCFLNNFYPKDINVKWKIDGSERQNGVLNSWTDQDSKDSTYSMSSTLTLTKDEYERHNSYTCEATHKTSTSPIVKSFNRNEC", "chain 3": "EVQLVESGGGLVQPGKSLKLSCEASGFTFSGYGMHWVRQAPGRGLESVAYITSSSINIKYADAVKGRFTVSRDNAKNLLFLQMNILKSEDTAMYYCARFDWDKNYWGQGTMVTVSSAKTTPPSVYPLAPGSAAQTNSMVTLGCLVKGYFPEPVTVTWNSGSLSSGVHTFPAVLQSDLYTLSSSVTVPSSTWPSETVTCNVAHPASSTKVDKKIVPRDCGCKPCICTVKEVSKVFIFPPKPKDVLTITLTPKVTCVVVDISKDDPEVQFSWFVDDVEVHTAQTQPREEQFNSTFRSVSELPIMHQDWLNGKEFKCRVNSAAFPAPIEKTISKTKGRPKAPQVYTIPPPKEQMAKDKVSLTCMITDFFPEDITVEWQWNGQPAENYKNTQPIMRTDGSYFVYSKLNVQKSNWEAGNTFTCSVLHEGLHNHHTEKSLSHSPGK", "chain 4": "DIQMTQSPSSLPASLGDRVTINCQASQDISNYLNWYQQKPGKAPKLLIYYTNKLADGVPSRFSGSGSGRDSSFTISSLESEDIGSYYCQQYYNYPWTFGPGTKLEIKRADAAPTVSIFPPSSEQLTSGGASVVCFLNNFYPKDINVKWKIDGSERQNGVLNSWTDQDSKDSTYSMSSTLTLTKDEYERHNSYTCEATHKTSTSPIVKSFNRNEC", "modifications": "H0000-mF18mN4; GL4-mk1; 2C11VH-mF18mP4; 2C11VL-mk1"}}, "key": {"[1]": {"test_system": "Hepa1-6/hGPC3 cancer cells", "assay": "Syngeneic mouse model: pre-administration of MR-16-1 and drug efficacy of GC33/2C11", "assay_type": "in vivo, C57BL/6 mice", "experimental": "In a test using a syngeneic mouse model, a study for evaluating the effect of pre-administration of an anti-mouse IL6 receptor antibody, MR-16-1 (see Okazaki M, et al., Characterization of anti-mouse interleukin-6 receptor antibody, Immunol Lett. 2002 Dec. 3; 84(3):231-40; and Saito T, et al., Preparation of soluble murine IL-6 receptor and anti-murine IL-6 receptor antibodies, J. Immunol., 47 (1991), pp. 168-173), on the drug efficacy of ERY974 surrogate antibodies was carried out as follows. Hepa1-6/hGPC3 cancer cells, which are mouse cancer cell line Hepa1-6 made to highly express human GPC3, were transplanted subcutaneously in C57BL/6 mice. The day of transplantation was set to day 0. On day 18, grouping was performed according to tumor size and body weight. MR-16-1 was administered into the tail vein at 30 mg/kg on day 18. On day 19, the day after MR-16-1 administration, GC33/2C11 was administered into the tail vein at 0.2 and 5 mg/kg. MR-16-1 was administered six times in total (on days 18, 21, 25, 28, 32 and day 35). GC33/2C11 was administered once, only on day 19. GC33/2C11 was an antibody comprising the amino acid sequence of SEQ ID NO: 443 as the GPC3-side heavy chain, the amino acid sequence of SEQ ID NO: 444 as the GPC3-side light chain, the amino acid sequence of SEQ ID NO: 445 as the CD3-side heavy chain, and the amino acid sequence of SEQ ID NO: 446 as the CD3-side light chain."}, "[2]": {"test_system": "Hepa1-6/hGPC3 cancer cells", "assay": "Syngeneic mouse model: post-administration of MR-16-1 and drug efficacy of GC33/2C11", "assay_type": "in vivo, C57BL/6 mice", "experimental": "In a study using a syngeneic mouse model, a study for evaluating the effect of post-administration of an anti-mouse IL6 receptor antibody, MR-16-1, on the drug efficacy of ERY974 surrogate antibodies was carried out as follows. Hepa1-6/hGPC3 cancer cells, which are mouse cancer cell line Hepa1-6 made to highly express human GPC3, were transplanted subcutaneously in C57BL/6 mice. The day of transplantation was set to day 0. On day 16, grouping was performed according to tumor size and body weight. On day 17, GC33/2C11 was first administered into the tail vein at 0.2 or 5 mg/kg, and two hours later, MR-16-1 was administered into the tail vein at 30 mg/kg. MR-16-1 was administered six times in total (on days 17, 21, 24, 28, 31, and day 35). GC33/2C11 was administered once, only on day 17."}}, "data": [{"molecule": "B1", "values": [{"measurement": "Antitumor activity (%)", "setting": "[1]; Group 2: GC33/2C11 0.2 mg/kg tail vein, day 19, alone", "result": 80, "unit": "%"}, {"measurement": "Antitumor activity (%)", "setting": "[1]; Group 3: GC33/2C11 5 mg/kg tail vein, day 19, alone", "result": 110, "unit": "%"}, {"measurement": "Antitumor activity (%)", "setting": "[1]; Group 5: GC33/2C11 0.2 mg/kg day 19 after pre-administration of MR-16-1 (30 then 15 mg/kg, day 18, 21, 25, 28, 32, 35)", "result": 99, "unit": "%"}, {"measurement": "Antitumor activity (%)", "setting": "[1]; Group 6: 5 mg/kg day 19 after pre-administration of MR-16-1 (30 then 15 mg/kg, day 18, 21, 25, 28, 32, 35)", "result": 107, "unit": "%"}, {"measurement": "Antitumor activity (%)", "setting": "[2]; Group 2: GC33/2C11 0.2 mg/kg tail vein, day 17, alone", "result": 102, "unit": "%"}, {"measurement": "Antitumor activity (%)", "setting": "[2]; Group 3: GC33/2C11 5 mg/kg tail vein, day 17, alone", "result": 109, "unit": "%"}, {"measurement": "Antitumor activity (%)", "setting": "[2]; Group 5: GC33/2C11 0.2 mg/kg day 17, 2 hours before MR-16-1 (30 then 15 mg/kg, day 17, 21, 24, 28, 31, 35)", "result": 103, "unit": "%"}, {"measurement": "Antitumor activity (%)", "setting": "[2]; Group 6: 5 mg/kg day 17, 2 hours before MR-16-1 (30 then 15 mg/kg, day 17, 21, 24, 28, 31, 35)", "result": 109, "unit": "%"}]}]}
